# Source: the supplement of paper PMC11246515
# ± gives the standard deviation of the averaged measurements.
# Test: total protein half-life in vivo (active degradation + dilution); higher = more stable protein
# [1] = E. coli NCM3722 delta-clpP delta-lon delta-hslV, growth: N-lim chemostat, doubling time 6 h
# [2] = E. coli NCM3722 delta-clpP, growth: N-lim chemostat, doubling time 6 h
# [3] = E. coli NCM3722 delta-hslV, growth: N-lim chemostat, doubling time 6 h
# [4] = E. coli NCM3722 delta-lon, growth: N-lim chemostat, doubling time 6 h
# [5] = E. coli NCM3722 delta-smpB, growth: N-lim chemostat, doubling time 6 h
# [6] = wild type E. coli NCM3722, growth: C-lim chemostat, doubling time 3 h
# [7] = wild type E. coli NCM3722, growth: C-lim chemostat, doubling time 6 h
# [8] = wild type E. coli NCM3722, growth: C-lim chemostat, doubling time 12 h
# [9] = wild type E. coli NCM3722, growth: N-lim chemostat, doubling time 6 h
# [10] = wild type E. coli NCM3722, growth: P-lim chemostat, doubling time 6 h
# [11] = wild type E. coli NCM3722, growth: P-lim chemostat, doubling time 12 h
# [12] = wild type E. coli NCM3722, growth: N-lim chemostat, doubling time 12 h
sequence,measurement,setting,value
MNKHTEHDTREHLLATGEQLCLQRGFTGMGLSELLKTAEVPKGSFYHYFRSKEAFGVAMLERHYAAYHQRLTELLQSGEGNYRDRILAYYQQTLNQFCQHGTISGCLTVKLSAEVCDLSEDMRSAMDKGARGVIALLSQALENGRENHCLTFCGEPLQQAQVLYALWLGANLQAKISRSFEPLENALAHVKNIIATPAV,total protein half-life in vivo,[1],5.12 h
same,total protein half-life in vivo,[2],4.66 ± 0.51 h
same,total protein half-life in vivo,[3],> 8 h
same,total protein half-life in vivo,[4],6.18 h
same,total protein half-life in vivo,[5],4.66 ± 0.14 h
same,total protein half-life in vivo,[6],3.13 ± 0.15 h
same,total protein half-life in vivo,[7],5.91 ± 0.12 h
same,total protein half-life in vivo,[8],11.7 h
same,total protein half-life in vivo,[9],7.06 h
same,total protein half-life in vivo,[10],5.25 h
same,total protein half-life in vivo,[11],12.7 h
MNILGFFQRLGRALQLPIAVLPVAALLLRFGQPDLLNVAFIAQAGGAIFDNLALIFAIGVASSWSKDSAGAAALAGAVGYFVLTKAMVTINPEINMGVLAGIITGLVGGAAYNRWSDIKLPDFLSFFGGKRFVPIATGFFCLVLAAIFGYVWPPVQHAIHAGGEWIVSAGALGSGIFGFINRLLIPTGLHQVLNTIAWFQIGEFTNAAGTVFHGDINRFYAGDGTAGMFMSGFFPIMMFGLPGAALAMYFAAPKERRPMVGGMLLSVAVTAFLTGVTEPLEFLFMFLAPLLYLLHALLTGISLFVATLLGIHAGFSFSAGAIDYALMYNLPAASQNVWMLLVMGVIFFAIYFVVFSLVIRMFNLKTPGREDKEDEIVTEEANSNTEEGLTQLATNYIAAVGGTDNLKAIDACITRLRLTVADSARVNDTMCKRLGASGVVKLNKQTIQVIVGAKAESIGDAMKKVVARGPVAAASAEATPATAAPVAKPQAVPNAVSIAELVSPITGDVVALDQVPDEAFASKAVGDGVAVKPTDKIVVSPAAGTIVKIFNTNHAFCLETEKGAEIVVHMGIDTVALEGKGFKRLVEEGAQVSAGQPILEMDLDYLNANARSMISPVVCSNIDDFSGLIIKAQGHIVAGQTPLYEIKK,total protein half-life in vivo,[1],6.3 ± 0.38 h
same,total protein half-life in vivo,[2],6.68 ± 1.1 h
same,total protein half-life in vivo,[3],6.55 ± 1.2 h
same,total protein half-life in vivo,[4],5.86 ± 0.12 h
same,total protein half-life in vivo,[5],5.83 ± 0.32 h
same,total protein half-life in vivo,[6],3.142 ± 0.004 h
same,total protein half-life in vivo,[7],5.88 ± 0.17 h
same,total protein half-life in vivo,[8],11.9 ± 1.4 h
same,total protein half-life in vivo,[9],5.91 ± 0.66 h
same,total protein half-life in vivo,[12],11.5 ± 0.56 h
same,total protein half-life in vivo,[10],6.04 ± 0.14 h
same,total protein half-life in vivo,[11],12.6 ± 0.78 h
MVDQAQDTLRPNNRLSDMQATMEQTQAFENRVLERLNAGKTVRSFLITAVELLTEAVNLLVLQVFRKDDYAVKYAVEPLLDGDGPLGDLSVRLKLIYGLGVINRQEYEDAELLMALREELNHDGNEYAFTDDEILGPFGELHCVAALPPPPQFEPADSSLYAMQIQRYQQAVRSTMVLSLTELISKISLKKAFQK [P0AF10],total protein half-life in vivo,[1],4.34 ± 0.54 h
same,total protein half-life in vivo,[4],4.01 h
same,total protein half-life in vivo,[5],3.44 h
same,total protein half-life in vivo,[6],2.48 ± 0.33 h
same,total protein half-life in vivo,[7],4.42 ± 0.24 h
same,total protein half-life in vivo,[8],12.5 ± 1.4 h
same,total protein half-life in vivo,[9],3.54 h
same,total protein half-life in vivo,[12],5.95 ± 0.25 h
same,total protein half-life in vivo,[10],4.55 h
same,total protein half-life in vivo,[11],12.2 ± 2 h
MRDIQMVLERWGAWAANNHEDVTWSSIAAGFKGLITSKVKSRPQCCDDDAMIICGCMARLKKNNSDLHDLLVDYYVVGMTFMSLAGKHCCSDGYIGKRLQKAEGIIEGMLMALDIRLEMDIVVNNSN,total protein half-life in vivo,[1],2.96 h
same,total protein half-life in vivo,[8],8.73 h
same,total protein half-life in vivo,[10],5.67 h
same,total protein half-life in vivo,[11],10.4 ± 0.22 h
MKKVTAMLFSMAVGLNAVSMAAKAKASEEQETDVLLIGGGIMSATLGTYLRELEPEWSMTMVERLEGVAQESSNGWNNAGTGHSALMELNYTPQNADGSISIEKAVAINEAFQISRQFWAHQVERGVLRTPRSFINTVPHMSFVWGEDNVNFLRARYAALQQSSLFRGMRYSEDHAQIKEWAPLVMEGRDPQQKVAATRTEIGTDVNYGEITRQLIASLQKKSNFSLQLSSEVRALKRNDDNTWTVTVADLKNGTAQNIRAKFVFIGAGGAALKLLQESGIPEAKDYAGFPVGGQFLVSENPDVVNHHLAKVYGKASVGAPPMSVPHIDTRVLDGKRVVLFGPFATFSTKFLKNGSLWDLMSSTTTSNVMPMMHVGLDNFDLVKYLVSQVMLSEEDRFEALKEYYPQAKKEDWRLWQAGQRVQIIKRDAEKGGVLRLGTEVVSDQQGTIAALLGASPGASTAAPIMLNLLEKVFGDRVSSPQWQATLKAIVPSYGRKLNGDVAATERELQYTSEVLGLNYDKPQAADSTPKPQLKPQPVQKEVADIAL,total protein half-life in vivo,[1],3.81 ± 0.31 h
same,total protein half-life in vivo,[2],2.29 ± 0.29 h
same,total protein half-life in vivo,[3],1.1 ± 0.013 h
same,total protein half-life in vivo,[4],0.95 h
same,total protein half-life in vivo,[5],1.15 ± 0.2 h
same,total protein half-life in vivo,[9],1.19 ± 0.58 h
same,total protein half-life in vivo,[12],1.46 ± 0.27 h
MSKQQIGVVGMAVMGRNLALNIESRGYTVSIFNRSREKTEEVIAENPGKKLVPYYTVKEFVESLETPRRILLMVKAGAGTDAAIDSLKPYLDKGDIIIDGGNTFFQDTIRRNRELSAEGFNFIGTGVSGGEEGALKGPSIMPGGQKEAYELVAPILTKIAAVAEDGEPCVTYIGADGAGHYVKMVHNGIEYGDMQLIAEAYSLLKGGLNLTNEELAQTFTEWNNGELSSYLIDITKDIFTKKDEDGNYLVDVILDEAANKGTGKWTSQSALDLGEPLSLITESVFARYISSLKDQRVAASKVLSGPQAQPAGDKAEFIEKVRRALYLGKIVSYAQGFSQLRAASEEYNWDLNYGEIAKIFRAGCIIRAQFLQKITDAYAENPQIANLLLAPYFKQIADDYQQALRDVVAYAVQNGIPVPTFSAAVAYYDSYRAAVLPANLIQAQRDYFGAHTYKRIDKEGVFHTEWLD,total protein half-life in vivo,[1],5.22 ± 0.18 h
same,total protein half-life in vivo,[2],4.9 ± 0.45 h
same,total protein half-life in vivo,[3],5 ± 0.17 h
same,total protein half-life in vivo,[4],5.58 ± 0.25 h
same,total protein half-life in vivo,[5],4.68 ± 0.083 h
same,total protein half-life in vivo,[6],3.21 ± 0.06 h
same,total protein half-life in vivo,[7],5.85 ± 0.4 h
same,total protein half-life in vivo,[8],10 ± 0.24 h
same,total protein half-life in vivo,[9],4.73 ± 0.23 h
same,total protein half-life in vivo,[12],8.31 ± 0.24 h
same,total protein half-life in vivo,[10],6.054 ± 0.042 h
same,total protein half-life in vivo,[11],12.9 ± 1.8 h
MDMDLNNRLTEDETLEQAYDIFLELAADNLDPADVLLFNLQFEERGGAELFDPAEDWQEHVDFDLNPDFFAEVVIGLADSEDGEINDVFARILLCREKDHKLCHIIWRE [P0A8L7],total protein half-life in vivo,[1],5.64 ± 0.096 h
same,total protein half-life in vivo,[2],4.35 ± 0.49 h
same,total protein half-life in vivo,[3],3.78 h
same,total protein half-life in vivo,[4],5.055 ± 0.0098 h
same,total protein half-life in vivo,[5],3.64 h
same,total protein half-life in vivo,[6],2.74 ± 0.24 h
same,total protein half-life in vivo,[7],5.72 ± 0.71 h
same,total protein half-life in vivo,[8],8.89 h
same,total protein half-life in vivo,[9],3.83 h
same,total protein half-life in vivo,[12],7.29 ± 0.12 h
same,total protein half-life in vivo,[10],> 8 h
same,total protein half-life in vivo,[11],11.2 ± 3.8 h
MAVQKNVIKGILAGTFALMLSGCVTVPDAIKGSSPTPQQDLVRVMSAPQLYVGQEARFGGKVVAVQNQQGKTRLEIATVPLDSGARPTLGEPSRGRIYADVNGFLDPVDFRGQLVTVVGPITGAVDGKIGNTPYKFMVMQVTGYKRWHLTQQVIMPPQPIDPWFYGGRGWPYGYGGWGWYNPGPARVQTVVTE [P0AA91],total protein half-life in vivo,[1],6.07 ± 0.61 h
same,total protein half-life in vivo,[2],6.3 ± 0.12 h
same,total protein half-life in vivo,[3],6.13 ± 0.12 h
same,total protein half-life in vivo,[4],6.532 ± 0.04 h
same,total protein half-life in vivo,[5],5.76 ± 0.071 h
same,total protein half-life in vivo,[6],3.01 ± 0.17 h
same,total protein half-life in vivo,[7],6.05 ± 0.21 h
same,total protein half-life in vivo,[8],10.7 ± 2.4 h
same,total protein half-life in vivo,[9],6.52 ± 0.45 h
same,total protein half-life in vivo,[12],13.7 ± 1.7 h
same,total protein half-life in vivo,[10],6.13 ± 0.1 h
